Test results reported in PMC6770530, “Tumor Uptake of Triazine Dendrimers Decorated with Four, Sixteen, and Sixty-Four PSMA-Targeted Ligands: Passive versus Active Tumor Targeting” (Biomolecules, 2019).
Where two headings read alike, the source gives them in different places.

How the values were obtained:
[1] = test system: PC3-PIP (PSMA positive) and PC3-FLU (PSMA negative) cells; experiment: Cell uptake of 64Cu-labeled dendrimers in PC3-PIP and PC3-FLU cells; format: cell-based; details: 64Cu-labeled dendrimer, 1 h at 37 °C, n = 3
Description: Cell uptake experiments were conducted in the PSMA positive PC3-PIP cell lines and the PSMA negative PC-FLU cell lines. The cells (5.0 × 10^5) were seeded to a 6-well plate and incubated at 37 °C overnight in a humidified incubator with 5% CO2. After being rinsed with binding buffer (20 mM Tris, 150 mM NaCl, pH 7.4), the cells in binding buffer (500 µL) were incubated at 37 °C with ~6.0 × 10^5 CPM of ^64Cu-labeled dendrimers for 1 h, washed with cold binding buffer, and then trypsinized. The radioactivity of trypsinized cells was counted on a 2480 automatic gamma counter (PerkinElmer).

[2] = mouse, in vivo, iv, 64Cu-labeled dendrimer; for tissue uptake at 1 h: 1 h p.i.; for tissue uptake at 4 h: 4 h p.i.
PSMA [3] = molecular target: T1, PSMA (Homo sapiens, UniProt Q04609); experiment: Competitive cell-binding assay with 125I-labeled PSMA radioligand in PC3-PIP cells; details: read-out: IC50 (displacing 50% of the 125I-labeled PSMA radioligand bound to PC3-PIP cells), room temperature 2 h, n = 4
T1 construct: expressed in transfected cells; host or cells: PC3-PIP cells (PSMA positive)
Description: A reported PSMA ^125I-radioligand [21] was used as a PSMA-specific radioligand in the assay. PC3-PIP cells were suspended in Tris-buffered saline (TBS) and seeded on multiwell DV plates (Millipore) with 5 × 10^4 cells per well. […] The unbound ^125I-radioligand was removed by filtration. The wells were rinsed five times with cold TBS buffer. The filters were then collected and their radioactivity was measured on a 2480 automatic gamma counter (PerkinElmer).

[4] = Serum stability assay of 64Cu-labeled dendrimers; format: in vitro ADME, rat
Description: The stability of ^64Cu-labeled dendrimers was evaluated in rat serum. […] An aliquot of sample (10 µL) was mixed with 5 mM EDTA (100-fold molar excess) and incubated at 37 °C for 10 min. The resulting solution was analyzed by a Rita Star Radioisotope TLC Analyzer.

PC3-PIP cells = experiment: Internalization of 64Cu-labeled dendrimers in PC3-PIP cells; format: cell-based; details: 64Cu-labeled dendrimer, incubation 1-120 min
Description: The PC3-PIP cells were used for the internalization study. The 12-well plates containing ~2.0 × 10^5 cells were incubated overnight in a humidified incubator at 37 °C with 5% CO2 and then washed with binding buffer (20 mM Tris, 150 mM NaCl, pH 7.4). Each solution of ^64Cu-labeled dendrimers (~6.0 × 10^5 CPM) in 0.4 mL of binding buffer was incubated with the cells for 1, 10, 30, 60, and 120 min, respectively, and then washed once with ice-cold binding buffer. The surface bound ^64Cu-labeled dendrimers were removed by incubating cells twice for 5 min with 0.5 mL of ice-cold low pH stripping buffer (150 mM NaCl, 50 mM glycine, pH 3.0) and collected in a culture tube. After incubation with 0.5 mL of 4 M NaOH at 37 °C for 15 min, the NaOH-solubilized cells were collected in separate culture tubes. The radioactivity of surface bound/internalized ^64Cu-labeled dendrimers was counted on a 2480 automatic gamma counter (PerkinElmer).

[5] = test system: SCID mice bearing PC3-PIP and PC3-FLU xenografts; details: 64Cu-labeled dendrimer, i.v., 4 h p.i.
[6] = parameters: method as in PMID 23398590; details: estimated by dynamic light scattering of unfunctionalized analogues; cited from earlier work
PSMA [7] = molecular target: T1, PSMA; parameters: method as in PMID 15027864, PMID 25822623; details: cited from earlier work
[8] = In vivo organ uptake, Left Kidney
[9] = In vivo organ uptake, Right Kidney
[10] = In vivo tumor uptake, PC3-FLU, PSMA negative xenograft right shoulder
[11] = In vivo tumor uptake, PC3-PIP, PSMA positive xenograft left shoulder

T1 sequence (Q04609 whole entry): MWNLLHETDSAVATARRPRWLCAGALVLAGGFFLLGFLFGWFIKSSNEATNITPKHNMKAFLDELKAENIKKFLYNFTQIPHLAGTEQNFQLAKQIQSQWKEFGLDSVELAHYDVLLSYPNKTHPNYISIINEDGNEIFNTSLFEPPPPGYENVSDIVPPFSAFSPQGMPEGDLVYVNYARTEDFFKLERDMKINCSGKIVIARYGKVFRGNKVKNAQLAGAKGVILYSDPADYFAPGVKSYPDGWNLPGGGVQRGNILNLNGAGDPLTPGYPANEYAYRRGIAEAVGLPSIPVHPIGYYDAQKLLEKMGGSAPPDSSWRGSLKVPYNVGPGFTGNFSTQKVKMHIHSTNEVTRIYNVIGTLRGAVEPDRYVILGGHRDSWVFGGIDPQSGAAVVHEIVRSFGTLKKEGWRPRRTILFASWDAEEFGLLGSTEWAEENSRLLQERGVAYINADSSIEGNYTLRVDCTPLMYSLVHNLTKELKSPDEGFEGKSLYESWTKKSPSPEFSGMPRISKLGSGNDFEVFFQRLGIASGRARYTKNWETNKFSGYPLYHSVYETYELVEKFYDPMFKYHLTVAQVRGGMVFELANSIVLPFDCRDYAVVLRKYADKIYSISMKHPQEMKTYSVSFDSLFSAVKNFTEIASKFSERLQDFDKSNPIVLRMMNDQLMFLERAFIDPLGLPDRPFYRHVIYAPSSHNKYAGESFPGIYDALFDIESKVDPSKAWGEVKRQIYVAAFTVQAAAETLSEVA

SMILES: NCC1CCN(c2nc(NCCCOCCOCCOCCCNC(=O)CCCCCCCNC(=O)CC[C@H](NC(=O)N[C@@H](CCC(=O)O)C(=O)O)C(=O)O)nc(N3CCN(c4nc(NCCCOCCOCCOCCCNc5nc(NCCCOCCOCCOCCCNC(=O)CCC(C(=O)O)N6CCN(CC(=O)O)CCN(CC(=O)O)CCN(CC(=O)O)CC6)nc(NCCCOCCOCCOCCCNc6nc(N7CCN(c8nc(NCCCOCCOCCOCCCNC(=O)CCCCCCCNC(=O)CC[C@H](NC(=O)N[C@@H](CCC(=O)O)C(=O)O)C(=O)O)nc(N9CCC(CN)CC9)n8)CC7)nc(N7CCN(c8nc(NCCCOCCOCCOCCCNC(=O)CCCCCCCNC(=O)CC[C@H](NC(=O)N[C@@H](CCC(=O)O)C(=O)O)C(=O)O)nc(N9CCC(CN)CC9)n8)CC7)n6)n5)nc(N5CCN(c6nc(NCCCOCCOCCOCCCNC(=O)CCCCCCCNC(=O)CC[C@H](NC(=O)N[C@@H](CCC(=O)O)C(=O)O)C(=O)O)nc(N7CCC(CN)CC7)n6)CC5)n4)CC3)n2)CC1 (stereo partly shown) [G1-(DUPA)4]
- PC3-PIP to PC3-FLU cell uptake ratio [1]: 10
- tissue uptake at 1 h ([2]; In vivo organ uptake, Bone): 0.08 ± 0.03 %ID/g
- tissue uptake at 4 h ([2]; In vivo organ uptake, Bone): 0.07 ± 0.01 %ID/g
- tissue uptake at 24 h ([2]; In vivo organ uptake, Bone, 24 h p.i.): 0.08 ± 0.02 %ID/g
- tissue uptake at 1 h ([2]; In vivo organ uptake, Brain): 0.03 ± 0.01 %ID/g
- tissue uptake at 4 h ([2]; In vivo organ uptake, Brain): 0.02 %ID/g
- tissue uptake at 24 h ([2]; In vivo organ uptake, Brain, 24 h p.i.): 0.07 %ID/g
- tissue uptake at 1 h ([2]; In vivo organ uptake, Heart): 0.16 ± 0.05 %ID/g
- tissue uptake at 4 h ([2]; In vivo organ uptake, Heart): 0.1 ± 0.02 %ID/g
- tissue uptake at 24 h ([2]; In vivo organ uptake, Heart, 24 h p.i.): 0.25 ± 0.05 %ID/g
- tissue uptake at 1 h [2, 8]: 53.3 ± 4.37 %ID/g
- tissue uptake at 4 h [2, 8]: 58.7 ± 4.98 %ID/g
- tissue uptake at 24 h ([2]; In vivo organ uptake, Left Kidney, 24 h p.i.): 54 ± 5.96 %ID/g
- tissue uptake at 1 h ([2]; In vivo organ uptake, Liver): 1.03 ± 0.16 %ID/g
- tissue uptake at 4 h ([2]; In vivo organ uptake, Liver): 1.2 ± 0.2 %ID/g
- tissue uptake at 24 h ([2]; In vivo organ uptake, Liver, 24 h p.i.): 1.93 ± 0.15 %ID/g
- tissue uptake at 1 h ([2]; In vivo organ uptake, Muscle): 0.06 ± 0.03 %ID/g
- tissue uptake at 4 h ([2]; In vivo organ uptake, Muscle): 0.05 ± 0.01 %ID/g
- tissue uptake at 24 h ([2]; In vivo organ uptake, Muscle, 24 h p.i.): 0.13 ± 0.03 %ID/g
- tissue uptake at 1 h [2, 9]: 56.8 ± 5.14 %ID/g
- tissue uptake at 4 h [2, 9]: 60 ± 3.27 %ID/g
- tissue uptake at 24 h ([2]; In vivo organ uptake, Right Kidney, 24 h p.i.): 55 ± 7.36 %ID/g
- tissue uptake at 1 h [2, 10]: 0.18 ± 0.05 %ID/g
- tissue uptake at 4 h [2, 10]: 0.13 ± 0.02 %ID/g
- tissue uptake at 24 h ([2]; In vivo tumor uptake, PC3-FLU, PSMA negative xenograft right shoulder, 24 h p.i.): 0.33 ± 0.06 %ID/g
- tissue uptake at 1 h [2, 11]: 0.99 ± 0.36 %ID/g
- tissue uptake at 4 h [2, 11]: 0.87 ± 0.4 %ID/g
- tissue uptake at 24 h ([2]; In vivo tumor uptake, PC3-PIP, PSMA positive xenograft left shoulder, 24 h p.i.): 0.81 ± 0.36 %ID/g
- tissue uptake at 24 h ([2]; level of kidney uptake, over 24 h p.i.): 45 to 55 %ID/g
- IC50 (PSMA [3]): 282 nM
- serum stability [4]: stable in rat serum and remained intact over 24 h
- highest (maximum) internalization (PC3-PIP cells): 49%
- PC3-PIP to PC3-FLU uptake ratio (in vivo) [5]: 6.7 ± 3.0
- PC3-PIP to muscle uptake ratio [5]: 17.7 ± 5.5
- dimensions [6]: approximately 2 nm

SMILES: O=C(O)CCC(NC(=O)NC(CCC(=O)O)C(=O)O)C(=O)O (stereo not shown) [DUPA, 2-[3-(1,3-dicarboxypropyl)-ureido] pentanedioic acid]
- IC50 (PSMA [7]): 47 nM
- Ki (PSMA [7]): 8 nM
